Source: the DeepSol protein solubility set

Experiment: soluble on expression in E. coli; label from the status in PepcDB or PDB records

Sequence	soluble on expression in E. coli
MKPKKRQMEYLTRGLIAVQTEQGVFVSWRFLGTDHETTAFHLYRDGKRITRDPIAESTNFLDQNGTADSVYQVAAVNKGREEKLSKKARVWQENVLEVPLAKPEGGVTPDGKPYTYSANDASVGDIDGDGEYEMILKWDPSNSKDNAHDGYTGEVLIDAYKLDGTFLWRINLGRNIRAGAHYTQFMVYDLDGDGKAEIAMKTADGTTDGKGHIIGDEQADFRNEQGRILSGPEYLTVFKGETGEALTTVEYEPPRGKLEDWGDGYGNRMDRFLAGTAYLDGERPSLVMARGYYTRTVLVAYDFRNGRLKKRWVFDSNQPGHEAYAGQGNHSLSVADVDGDGKDEIIYGAMAVDHDGTGLYSTGLGHGDAMHVGDLDPSRKGLEVFQVHEDATKPYGLSLRDAGTGEILWGVHAGTDVGRGMAAHIDPSYKGSLVWGIDPPGNDGMSYGLFTSKGEKISDKAPSSANFAIWWDGDLVRELLDHDWDGTIGRPKIEKWDAENGCLKTIFQPAGVLSNNGTKGNPVLQANLFGDWREEVIWRTEDSSALRIYTTTHLTRHCFYTLMHDPVYRLGIAWQNTAYNQPPHTSFYLGTGMKKPPKPALYIAGSKAEAPLLEHHHHHH	soluble
MNPDEPNFIWKDLNAVRDMGCIIENELSEVLPNKRYETYSIIGRSGEFNETFNDYEPFDYEIEDVTIPYENLAAVKRWLTGKSKLITHNDEDKYLDAICTMSKPTSFKNEWGVFYTFNVEFRCQPFKRKVNEQPKVIKTKSIEITDHGDEIAFPYIEINSKGGDITLNIGSNSLTILRTQSGIVTIDTEKGKAIQEGNPLFTRGSWIKTNPGQNKLNISGNFIEAKFWNRSAYL	not soluble
MPPRPRMLAAAITAALALGAQAVPAAAADGPAGDSTATTSRGVEIPAFYTPPSELPAADGTLIRHEPLPLALSLPGIDGPLPGRATRLMYKSTDANGEAVAVTGAYVEPAAKWRGDGPRPLVAVAPGTMGQGDQCAASMALEHPLQLNGQTVSVGYEDLSVYRLLLRGVAVVVTDYVGLGTTDRLHTYVNRVDGAHAVLDAVRAARSLDSASVTSDSRVGLFGYSQGGGATAAAAELQPSYAPDVQLAGTYAGAPPADLTEVTKAIDGSDLAGALGWSLNGFLQTEPALRPIADRYINEAGQEALKDLSTMCVGDALFGYGGDSSTDWTRTGQSISDVIRAEPALQSFLAEQRIGSTAPGSPVRVATGVSDDLVPHGQARRLAVDWCGKGGKVTYVPVLIPGVGSGLLNHFAPLLADQGNAIAWLTDRLSGEPAGSNCWSMPVQPLEHHHHHH	soluble
SFGCLVAGRLVQTAAQQVAEDKFVFDLPDYESINHVVVFMLGTIPFPEGMGGSVYFSYPDSNGMPVWQLLGFVTNGKPSAIFKISGLKSGEGSQHPFGAMNIVRTPSVAQIGISVELLDSMAQQTPVGNAAVSSVDSFTQFTQKMLDNFYNFASSFAVSQAQMTPSPSEMFIPANVVLKWYENFQRRLAQNPLFWKT	soluble
MDKIHAMQLFIRVADLESFSRAAETLALPKGSVSRQIQALESHLGVRLLHRTTRRVQLTQDGMVYYERAKDLLSNLDELDGMFQHDPASISGRLRVDMPVGFAKKMVIPHLPTFLQQYPGIELELSSSDRQVDVIREGFDCVVRVGALKDSGLIARPLGKLTQINCASPDYLARFGYPQSLEDLADHALIHYASTLGVRPPGFEVMIDGAVRWVKTGGILTVNSTETYQAACIAGLGIIQVPRTGVREALRAGDLIEILPQYRAEPLPVSLIYPHRRNLSRRVNLFMEWLGGLMKAYVD	not soluble
MAHHHHHHMDAPEWTKDAQSIQGAKDYVRQASIVDFYEMICRNIFTHHPANLTEFCLRIVKDIMNGTEITSAADFQPKRIDDNKYMRDMAMCSFLDGWILELLRERPGTHLERMEFHKRYLEGLQSESDTGK	soluble
MGSSHHHHHHSSGLVPRGSHMSISRFGVNTENEDHLAKELEDLNKWGLNIFNVAGYSHNRPLTCIMYAIFQERDLLKTFRISSDTFITYMMTLEDHYHSDVAYHNSLHAADVAQSTHVLLSTPALDAVFTDLEILAAIFAAAIHDVDHPGVSNQFLINTNSELALMYNDESVLENHHLAVGFKLLQEEHCDIFMNLTKKQRQTLRKMVIDMVLATDMSKHMSLLADLKTMVETKKVTSSGVLLLDNYTDRIQVLRNMVHCADLSNPTKSLELYRQWTDRIMEEFFQQGDKERERGMEISPMCDKHTASVEKSQVGFIDYIVHPLWETWADLVQPDAQDILDTLEDNRNWYQSMIPQSPSPPLDEQNRDCQGLMEKFQFELTLDEEDSEGPEKEGEGHS	soluble
MTIIAGLPVEYNDRFIRGIAVFAPWRKTPGNYHQSHGACLGRRSRTITVVDEQPQGMDMDPTCSLFTTGQCLGEPDLLASARRLQFFSHQYSIAVLMANARGNSALWDEYGRLIVRADRGSLLLVGQRSSQGWQGDIIPLR	not soluble
MGSDKIHHHHHHMRNITVPSNYFHTRERLGALGGIVQHHTALYRSVAVYEPTVVIVRRGCKKLRWAGRELRIAAGEAVGLAGGQTLDVINIPDSDGLYQAQWIAFEQETVERFAAQYGTAQAVCDAVKLPHPGRMGAAFDYAAAVLADEEVPHNAAEAALCGVLAWLQHDGIGFAVYGGVNLMRQIRKLITADMAADWSSAMLAQRLNCSEAALRRRLARQDTNFRTLLTDVRMMRALTLLQVTQWSVAQIAGAVGYDCPSRFSARFKELFGCVPSVVRSEAEPAAYRRTGQVSVGVRP	not soluble
NTLGMALYADGGLMASKPYAASGKYIHRMSNFCQSCYYNPNDLLGEKACPFNALYWNFLHQNQEKLKDNPRLRYAYMNWQKMDFDKQKKTIHKAQRILADLDSANL	not soluble
MQPTETSQPAPSDQGRRLKDQLSESMSFSSQMKKEDDELSMKALSAFKAKEEEIEKKKMEIRERVQAQLGRVEDESKRLAMIREELEGFADPMRKEVTMVRKKIDSLDKELKPLGNTVQKKETEYKDALEAFNEKNKEKVELITKLQEGESEKFRFKKLEELSKNIDLTKP	not soluble
MINHECINQPYGRILKFSRVQAKEMLTADELKENFAKNGQTLAQWARENGFKPRDVYLVIGGQRKGNYGKGHEIAKKLGLK	not soluble
MSRKYFYFDYDYYGMSFCEEEITTEPEEKVAYTSNSGGFADEVTGIPKEGHQSSIGEHSCVMPNTQDTGREEPEETSKVAETSEQSLFRIPRKAYRFTPGQLWELQAVFVENQYPDALKRKELAGLLNVDEQKIKDWFNNKRAKYRKIQREILGGKNITPTQEELRMKTLVESKKIIIFQEQEGDGLFWEHQNIDTQNSPLSLLFS	soluble
MRDTRGGDQGGGLEAQGGAEARNALPPETIVLILPWEPGSRRQPLKAGQVILKWGGYTMPYLVGPKGQVVIAKEIRERLGIRPGWRVIQRLVDDHVELYFLPPPHKASLKGLLRDKIRGTVSEEAWAEARERAWRASWSEEGEG	soluble
MKSFKEQYTLDERLAESREIIAKYPTRIPVIAEKYCKTDLPAIEKKKFLVPRDMSVGQFIYILSARLHLSPGKALFVFVNNTLPQTAALMDSVYESYKDDDGFVYMCYSSEKTFG	not soluble
GPLGSPRNANDNNQFYQQKQRQALGEQLYKKVSAKTSNEEAAGKITGMILDLPPQEVFPLLESDELFEQHYKEASAAYESFKKEQEQQTEQA	soluble
GPGSMKPSFYAVAVGKARGIYSTWAQCSEQVTGYPGCIYKGFRTLDEARSFLAAHPLPSTGSAVSLGGGSSSSVAAPYPSSSEHAALGSNYFKGRLKRETREDLLAGEESVAERQARRRRADHAQIAVAPPELSSMSASLSAATPSTTASKPLATTTTTSSPGAFEVVYVDGACSHNGTSQARAGYGGYYGSMSDPRNFSCPVPLTESQTNNRGEVRAVIHAIVQAFVDAGAPADALEATHLVDPSAWRLVDLTRPLPHLIIYTDSRYVIDGLTRYAKKWVQNGFVLSTNEPVQNQDLWRQLIRLRDRYNTLYARQQHDQQRACQWGDGHHSEADLAQLVRYTCQNARNDKSEGVELIHVRGHSKVHGNEMADSLAVMGSRLHRS	soluble
GPGSMLRRLFTRMAPRAKNHEELMKMLREGSQVGKMAASEESGVTFRDIRTVPIGESNEAKRRRLLYQSTYRGMVEMDIILGAFARQNIETLSAPQLEEYDAVLRHFDNDLYKWLVMDVEAPAEVAQIPVFQSLHSFVRDEREKLLKCAS	soluble
MGSDKIHHHHHHSDIASSVNGGSNRLADGGDFELGMSVYGINQIDVRQTGSGTAQLSLLVSGMYQYKGMFVEMIHQSQDGVNLGVNLWSSEDWSFDLLLANLQGSWSRPDLDPSTLDEAGRNAYLLSEDSLYIGAGFRATRYWGDNYVFQYRLVSDYYDDQGIQSSARLGKSWQVRNWNFHVLGSVGYSSATLNRYLFGVSKEEATELFPEYHPSSSFSYGMELGVAYPLSESFVFRAMYRFNVLSKEVTDSPFNQAGYASFFNASISYVF	not soluble
MSLKIVYITENAEKLAKDVKSVFDYYFYDNEVFNIKDFEITGNETGFVFIMASGIVLRKYIPEIQNDKLKDPFVILMDESKKHVVPLLSNHIGGGNYFSDLIGNFLNLDVVKTTATDVNGKIGIDELSKIYFLENPLKKDILSVNKKVLSEKPDLIIPKAWKTSKKLLNSYNVSFHDESHVLVDDIVLKPKTVSLGLGSRRNIEKSKVYWAVKKALYLRDIPTWRIDTFSTVSVKKDEYGILKTAERFDKDLFIFEIDELNEIYSKYPLIRSEFVFKTIGTYGVSEPCAILGISKITGETDFEMKKLVLNKMKKDGVSVSIAVEGHHHHHH	not soluble
MAHHHHHHMLSSAAPKRYKFDQRGNLTEVNFLACKSVVPPRTYVHSKNSLTCSTSVIPELHQTAHHCKGRSGANGTSGTNGKSGSTSKMAMSQENIFEAEAISTNAYAHGGGPSSLHSMNMVHSVSSVGSGGNDPSQYVPNQCGNMNMMGTGLSGHEMNNNAPLLFVDGAPYCADDAGQGIDPGVVAVSNALFAYNSAFQSIPIKTSPNVFRRRTKGEGNSEWCNAFVTRVDPCECGDPDEQFKPYEVTKYYDDGQVKTVFNFDQDSAPQEQLM	soluble
MQKQKSFDKQTTKGKLYLVPTPIGNLEDMSIRCLNILKEATVIASEDTRNTQKLLNHFEITTPQISLHEHNYKERIPQLITRLLNGETIAQVSDAGMPSISDPGHELVTACLEEELAVIALPGPTAGMTALIASGLLPQPFTFYGFLPRKKKEQKDVLSALKEERPTQIFYESPYRIAKTVATFAEVYGQERPAVICRELTKLHEEYLRGTLGELTEYLAENTLKGECCLLVSGFTGEKETIAAMPAISLKEHVQVLMEEEGRSSKEAIKEVAKLRNVKKQEVYKEYHSI	not soluble
MKRTKKEFTPYNEYHDRPFELKWATAFALGELQEGIEASDEYSKRAFERLPQQTTEEIEEYLEQSLKNNQVLEIQLNTLDDFGRVQPPIVGVFEGMSSMEYVKVGHTHILFEEIRHIKSHEFTKWSSLD	not soluble
MGHHHHHHSHMPTDNDLKAAILELLRDLDVLLVAHFYQKDEIVELAHYTGDSLELAKIASQSDKNLIVFCGVHFMGESVKALAFDKQVIMPKLSCCSMARMIDSHYYDRSVHLLKECGVKEFYPITYINSNAEVKAKVAKDDGVVCTSRNASKIFNHALKQNKKIFFLPDKCLGENLALENGLKSAILGANSQEEIKNADVVCYNGFCSVHQLFKLEDIEFYRQKYPDILIAVHPECEPSVVSNADFSGSTSQIIEFVEKLSPNQKVAIGTESHLVNRLKAKRHHQNTFILSSTLALCPTMNETTLKDLFEVLKAYKNHRAYNTIELKDEVARLAKLALTKMMELS	not soluble
MEEVYASELRGREPETVDTLFLDNTQGGVIGGINEKLTKLELLSMVKCGLTTLKGMPVLPALNYLDLSDNELGDDASFDVLIKCAPEIKKITLSGNRLTLDNVRTLKMLPNLMELDLSNNSSLGLLDDYRVKMFEMIPSLKILDGCDVDGEEVEEEFAAGEGAEDSDEGDSDEDGPGLSYLNKSQFSDDETDDYVVPEAGDAETRGAKRAASADCDEPEAKKSAE	soluble
